This data set addresses T1, Rv1495 (MazF homolog) (Mycobacterium tuberculosis, UniProt P9WII5 1-105).
T1 sequence: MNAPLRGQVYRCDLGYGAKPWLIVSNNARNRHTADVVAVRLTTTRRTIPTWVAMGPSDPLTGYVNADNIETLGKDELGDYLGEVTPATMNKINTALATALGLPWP
Kind of data set: EMSA.

As to CAGTGAGCGAGCTTCCGCTTGACATCCCAATA (ssDNA) [32-mer TopA substrate oligonucleotide], the binding result was “no binding”.

For the origin of these results see PMC3001090.
